According to patent US7265267 (CROPDESIGN N V, dated 2007):

T1: CDC2bAt protein in protein extract of A. thaliana Col-O cell suspension culture (Arabidopsis thaliana, UniProt P25859 1-309)
T1 construct: Endogenous protein in a crude extract
T1 sequence (looked up): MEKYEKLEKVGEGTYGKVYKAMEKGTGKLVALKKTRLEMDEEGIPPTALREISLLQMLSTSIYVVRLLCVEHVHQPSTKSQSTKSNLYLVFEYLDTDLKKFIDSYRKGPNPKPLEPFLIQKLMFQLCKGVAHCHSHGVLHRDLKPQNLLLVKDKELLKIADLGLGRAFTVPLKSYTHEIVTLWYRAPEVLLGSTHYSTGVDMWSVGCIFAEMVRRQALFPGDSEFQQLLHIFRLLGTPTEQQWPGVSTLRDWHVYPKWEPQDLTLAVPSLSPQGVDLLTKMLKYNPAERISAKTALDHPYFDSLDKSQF


Columns and labels:
[1] = target: GAL4 DNA-binding domain-CDC2bAt fusion (pGBTCDC2B) (Arabidopsis thaliana, UniProt P04386 1-147; P25859 1-309); test: yeast two-hybrid, growth without histidine
Protocol: (§1) The pGBTCDC2B vector encoding a fusion protein between the C-terminus of the GAL4 DNA-binding domain and CDC2bAt was constructed by cloning the full length coding region of CDC2bAt into the pGBT9 vector. pGBTCDC2B was transformed with pGADLDV66/pGADLDV39/pGADLDV159 in the HF7c yeast and cotransformants were plated on medium with or without histidine. As control, pGBTCDC2A was transformed with pGADLDV66/pGADLDV39/pGADLDV159. In contrast to the transformants containing the pGBTCDC2A vector were cotransformants containing the pGBTCDC2B vector unable to grow in the absence of histidine.

[2] = target: T2, GAL4 DNA binding domain alone (pGBT9) (UniProt P04386 1-147); test: yeast two-hybrid control, growth without histidine
T2 construct: Negative control bait in the two-hybrid retransformation
Description: (§2) The LDV159 clone was identical to ICK1 (GenBank accession number U94772 as published by Wang in Nature 386 (1997), 451–452). The two other clones were novel and encoded proteins only distantly related to ICK1 (Table 1). The LDV39 gene was 622 bp long, consisting of 423 bp coding region and 199 bp 3' UTR (excluding the poly-A tail). The LDV66 gene was 611 bp long, consisting of 379 bp coding region and 232 bp 3' UTR (excluding the poly-A tail). The specificity of the interaction between LDV39, LDV66, and LDV159 was verified by the retransformation of yeast with pGBTCDC2A and pGADLDV39/pGADLDV66/pGADLDV159. As controls, pGBTCDC2A was cotransformed with a vector containing only the GAL4 activation domain (pGAD424); and the pGADLDV39/pGADLDV66/pGADLDV159 vectors were cotransformed with a plasmid containing only the GAL4 DNA binding domain (pGBT9). Transformants were plated on medium with or without histidine. Only transformants containing both pGBTCDC2A and pGADLDV39, pGADLDV66, ot pGADLDV159 were able to grow in the absence of histidine.

[3] = target: T1, CDC2bAt protein in protein extract of …; test: pull-down from cell extract on FL66-Sepharose, Western blot
Protocol: The *Arabidopsis thaliana* CKI FL66 Associates Exclusively with CDC2aAt In Vitro Purified recombinant FL66 protein (prepared as described as in previous Example 6 was coupled to CNBr-activated Sepharose 4B (Pharmacia) at a concentration of 5 mg/ml of gel according to the manufacturer's instructions. Protein extracts were prepared from a 2-day-old cell suspension culture of *A. thaliana* Col-O in homogenisation buffer (HB) containing 50 mM Tris-HCl (pH 7.2), 60 mM β-glycerophosphate, 15 mM nitrophenyl phosphate, 15 mM EGTA, 15 mM MgCl_2, 2 mM dithiothreitol, 0.1 mM vanadate, 50 mM NaF, 20 µg/ml leupeptin, 20 µg/ml aprotinin, 20 µg/ml soybean trypsin inhibitor (SBTI), 100 µM benzamidine, 1 mM phenylmethylsulfonylfluoride, and 0.1% Triton X-100. Two-hundred µg protein extract in a total volume of 100 µl HB was loaded on 50 µl 50% (v/v) FL66-Sepharose or control Sepharose beads, and incubated on a rotating wheel for 2 h at 4° C. The unbound proteins were collected for later analysis. The beads-bound fractions were washed 3 times with HB. Beads were resuspended in 30 µl SDS-loading buffer and boiled. The supernatants (beads bound fractions) and 10 µl of the unbound fractions were separated on a 12.5% SDS-PAGE gel and electroblotted on nitrocellulose membrane (Hybond-C^+; Amersham). […]

[4] = target: T3, GAL4 DNA-binding domain-CDC2aAt fusion (pGBTCDC2A bait) (Arabidopsis thaliana, UniProt P04386 1-147; P24100 1-294); test: yeast two-hybrid control, growth without histidine
T3 construct: Yeast two-hybrid bait; whole CDC2aAt coding region amplified from cDNA and cloned in the EcoRI site of pGBT9
Description: as §2

[5] = target: T3, GAL4 DNA-binding domain-CDC2aAt fusion …; test: yeast two-hybrid, growth without histidine
Protocol: as §1

| Binder | binding result [1] | also measured |
| --- | --- | --- |
| GAL4 activation domain-LDV39 fusion (pGADLDV39) (other, not shown: large carriers, FL39 = ICK2 = CKI2) RRDSPPVEEQCQIEEEDSSVSCCSTSEEKSKRRIEFVDLEENNGDDRETETSWIYDDLNKSEESMNMDSSSVAVEDVESRRRLRKSLHETVKEAELEDFFQVAEKDLRNKLLECSMKYNFDFEKDEPLGGGRYEWVKLNP | no binding | binding result [2]: no binding |
| GAL4 activation domain-LDV66 fusion (pGADLDV66) (other, not shown: large carriers, FL66 = ICK3) VNSVPVAQSSNEDECFDNFVSVQVSCGENSLGFESRHSTRESTPCNFVEDMEIMVTPGSSTRSMCRATKEYTREQDNVIPTTSEMEEFFAYAEQQQQRLFMEKYNFDIVNDIPLSGRYEWVQVKP | no binding | binding result [2]: no binding |
| Purified recombinant FL66 protein (E. coli, FL66pET21d), starting at methionine 11 (other, also called FL66-Sepharose) MEVSKATAPSPGVRTRAAKTLALKRLNSSAADSALPNDSSCYLQLRSRRLEKPSSLIEPKQPPRVHRSGIKESGSRSRVDSVNSVPVAQSSNEDECFDNFVSVQVSCGENSLGFESRHSTRESTPCNFVEDMEIMVTPGSSTRSMCRATKEYTREQDNVIPTTSEMEEFFAYAEQQQQRLFMEKYNFDIVNDIPLSGRYEWVQVKP |  | binding result [3]: no binding |
| GAL4 activation domain-FL66 fusion (pGADFL66), FL66 starting at methionine 11 (other, not shown: large carriers, the FL66 clone may not be full length; also called ICK3) MEVSKATAPSPGVRTRAAKTLALKRLNSSAADSALPNDSSCYLQLRSRRLEKPSSLIEPKQPPRVHRSGIKESGSRSRVDSVNSVPVAQSSNEDECFDNFVSVQVSCGENSLGFESRHSTRESTPCNFVEDMEIMVTPGSSTRSMCRATKEYTREQDNVIPTTSEMEEFFAYAEQQQQRLFMEKYNFDIVNDIPLSGRYEWVQVKP | no binding |  |
| GAL4 activation domain-LDV159 fusion (pGADLDV159) (other, Arabidopsis thaliana, UniProt Q67Y93 1-191, looked up, not shown: large carriers, also called ICK1) MVRKYRKAKGIVEAGVSSTYMQLRSRRIVYVRSEKSSSVSVVGDNGVSSSCSGSNEYKKKELIHLEEEDKDGDTETSTYRRGTKRKLFENLREEEKEELSKSMENYSSEFESAVKESLDCCCSGRKTMEETVTAEEEEKAKLMTEMPTESEIEDFFVEAEKQLKEKFKKKYNFDFEKEKPLEGRYEWVKLE | no binding |  |
| GAL4 activation domain alone (pGAD424) (other, UniProt P04386 768-881, looked up, Negative control prey in the two-hybrid retransformation) ANFNQSGNIADSSLSFTFTNSSNGPNLITTQTNSQALSQPIASSNVHDNFMNNEITASKIDDGNNSKPLSPGWTDQTAYNAFGITTGMFNTTTMDDVYNYLFDDEDTPPNPKKE |  | binding result [4]: no binding |
| GAL4 activation domain-FL39 fusion (pGADFL39) (other, not shown: large carriers, also called ICK2; CKI2) MAAVRRRERDVVEENGVTTTTVKRRKMEEEVDLVESRIILSPCVQATNRGGIVARNSAGASETSVVIVRRRDSPPVEEQCQIEEEDSSVSCCSTSEEKSKRRIEFVDLEENNGDDRETETSWIYDDLNKSEESMNMDSSSVAVEDVESRRRLRKSLHETVKEAELEDFFQVAEKDLRNKLLECSMKYNFDFEKDEPLGGGRYEWVKLNP | no binding | binding result [5]: binds |
